For 1 substance, stoichiometry N (molecules of GFP–BLM per complex) results are on record in publication PMC6868385.

This experiment addresses GFP-tagged BLM (Bloom helicase) (human) (UniProt P54132). Briefly: single-molecule fluorescence intensity.

Take “GFP-tagged BLM (Bloom helicase), P54132 1-1417 (enzyme; other documents disagree on this pair)”: the stoichiometry N (molecules of GFP–BLM per complex) was determined as 3.1.
